In PMC4694755 one finds koff and kon data, which are given here for 1 substance.

For this assay, the target named is Mouse importin β (mouse) (UniProt P70168). Kind of assay: SPR.
Chain of Mouse importin β (mouse) (P70168 whole entry): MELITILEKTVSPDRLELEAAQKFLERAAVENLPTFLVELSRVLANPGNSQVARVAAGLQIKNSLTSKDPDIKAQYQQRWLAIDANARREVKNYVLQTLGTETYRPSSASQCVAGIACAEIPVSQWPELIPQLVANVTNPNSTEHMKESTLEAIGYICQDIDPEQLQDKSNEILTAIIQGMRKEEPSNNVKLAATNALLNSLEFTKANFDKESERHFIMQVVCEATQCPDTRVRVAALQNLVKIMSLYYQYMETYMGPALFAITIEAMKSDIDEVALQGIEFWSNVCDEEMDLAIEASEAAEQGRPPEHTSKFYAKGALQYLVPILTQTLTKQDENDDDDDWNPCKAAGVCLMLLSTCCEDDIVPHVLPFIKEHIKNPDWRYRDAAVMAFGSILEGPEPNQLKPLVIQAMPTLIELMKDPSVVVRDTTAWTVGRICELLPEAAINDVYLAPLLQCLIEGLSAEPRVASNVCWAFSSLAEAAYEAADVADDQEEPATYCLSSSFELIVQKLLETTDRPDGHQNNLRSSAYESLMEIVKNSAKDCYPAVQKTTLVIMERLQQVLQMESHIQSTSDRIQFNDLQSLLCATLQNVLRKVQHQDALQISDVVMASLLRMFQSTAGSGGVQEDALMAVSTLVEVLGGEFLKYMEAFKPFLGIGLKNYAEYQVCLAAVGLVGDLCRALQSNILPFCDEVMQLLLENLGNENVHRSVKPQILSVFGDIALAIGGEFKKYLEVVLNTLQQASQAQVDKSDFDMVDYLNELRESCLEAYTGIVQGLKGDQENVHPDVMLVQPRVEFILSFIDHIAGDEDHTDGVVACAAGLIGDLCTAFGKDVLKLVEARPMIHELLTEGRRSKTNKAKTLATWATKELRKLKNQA

In general, koff refers to a measure of how fast the partners let go of each other. A word on the kon: it is a measure of how fast the partners come together. Substance “human RanGTP (from UniProt P62826 1-216) (natural protein; other documents disagree on this pair)” gave a koff of 0.00107 s⁻¹ and a kon of 44400 M⁻¹ s⁻¹.
